B1: Chromodomain-helicase-DNA-binding protein 4, residues 623 to 675; numbered along this chain, Q14839 (parent)
chain: MIHRILNHSVDKKGHVHYLIKWRDLPYDQASWESEDVEIQDYDLFKQSYWNHR

Variants of: B1
Experiment: abundance fitness (aPCA) (normalised: wild type 0, dead -1); higher = more abundant; growth selection in yeast, the domain comes from the species named
Details: Homo sapiens

Abundance fitness, by site and new letter:
L44: A -0.014; G -0.342; H -0.034; S -0.015; V 0.074; R 0.058; Y -0.089; D -0.16; Q -0.11; M 0.085; K 0.111; F -0.201; E -0.211; W -0.302; N -0.131; P -0.91; C -0.293
L25: Y -0.325; V -0.249
Y27: R 0.04; K -0.013; P 0.018; A -0.003; G -0.201; E -0.241; Q 0.197; H 0.068; T 0.077; M -0.248; W -0.18; F -0.118; L 0.156; C -0.171; N 0.042; I 0.21; V 0.097; D 0.133
E35: W -0.684; Q -0.391; S -0.131; D -0.332; P -0.874; F -0.934; A -0.141; M -0.874; G -0.22; Y -0.757; L -0.833; I -0.765; R -0.882; H -0.769; V -0.809; K -0.844; T -0.45; C -0.717
I39: D -0.992; V -0.722; W -0.818; Q -0.764; A -0.805; R -0.756; E -1.02; L 0.026; S -0.745; Y -0.195; P -0.897; C -0.753; N -1.06; M -0.462; F 0.139; H -0.39; G -0.847; K -0.879; T -0.72
Q29: G -0.608; W -0.589; N -0.48; H -0.268; M -0.4; T -0.702; L -0.239; E -0.262; I -1.17; F -0.657; S -0.27; D -0.345; C -0.186; R -0.118; K 0.101; P -0.802; Y -0.493; A -0.105
F45: Q -0.71; C -0.306; W -0.279; G -0.856; R -0.757; L -0.388; H 0.119; K -0.391; V -0.616; N -0.627; A -0.013; I -0.423; M -0.283; P -0.857; S -0.444; E -0.735; D -0.568; T -0.64
D41: V -0.81; S -0.481; C -0.807; R -0.863; L -0.846; T -0.892; M -0.79; F -0.331; W -0.529; K -0.555; H -0.459; E -0.507; Q -0.191; I -0.929; G -0.283; Y -0.431; N -0.151
A30: W -0.465; Q -0.866; G -0.977; L -0.813; P -0.356; T -0.653; C -0.136; I 0.111; S -0.325; R -0.401; N -0.347; V -0.541; F -0.586; H -0.645; E -0.717
Y42: L -0.592; K -0.767
E33: Y -0.406; H -0.266; F -0.528; K -0.072; W -0.566; A -0.109; C 0.13; N -0.651; Q -0.152; R -0.254; D -0.947; I 0.101; G -0.781; V 0.036; L -0.164; P -0.895
S34: A -0.103; R -0.081; F -0.618; I -0.852; M -0.441; L -0.411; Y -0.731; H 0.136; T -0.377; Q -0.111; K 0.086; E -0.004; N -0.137; C 0.155; G -0.106; P -0.022
E38: W -0.257; I -0.122; N -0.472; R -0.37; H -0.324; L -0.199; T -0.187; D -0.175; V -0.217; Q -0.018; S -0.157; G -0.227; P -0.2; M -0.095; Y -0.337; F -0.113; C -0.144
D43: Y -0.253; W -0.219; C -0.236; M -0.262; G -0.147; I -0.862; R -0.577; E 0.099; H -0.186; A -0.205; S -0.307; Q -0.047; K -0.456; T -0.367; N -0.161; L -0.423; F -0.394
Q40: M -0.14; I -0.252; C -0.043; T -0.036; H -0.122; E -0.061; S -0.286; R -0.161; D -0.047; K 0.041; P -0.061; W -0.549; A -0.052; Y -0.504; V -0.131; L -0.271; F -0.548
P26: W -0.662; I -0.907; D -0.163; Q -0.602; C -0.701; K -0.59; R -0.533; F -0.749; A -0.751; M -0.761; S -0.19; V -0.762; L -0.62; N -0.201; Y -0.339; G -0.019; E -0.562; T -0.392; H -0.274
V37: Q 0.052; L -0.058; N 0.155; M 0.171; T -0.001; P -0.746; H -0.126; I -0.217; W -0.985; G -0.246; A 0.109; D -0.262; R 0.212; K 0.182; Y -0.361; C 0.117; E -0.039; F -0.166
S31: C -0.551; W -0.767; A -0.817; H -0.916; Q -0.646; Y -0.711; D -0.854; V -0.61; T 0.067; R -0.656; E -0.784; M -1.01; I -0.702; N -0.604; G -0.885
W32: Y -0.909; F -0.93; K -1.01; A -0.997; V -0.732; I -0.71; R -0.724; C -0.783; E -0.737; P -0.755; N -0.776; S -0.933; L -0.732; T -0.955; G -0.88; D -0.812; H -0.788; M -0.827; Q -0.75
K46: A -0.898; D -0.886
D28: Q -0.354; W -0.333; M -0.685; V -0.462; A 0.116; H -0.139; F -0.553; Y -0.504; N -0.028; L -0.55; C -0.025; K -0.124; I -0.664; G -0.179; T -0.098; R -0.169
D36: R -0.255; H -0.105; N 0.134; T -0.2; W -0.37; C -0.363; M -0.372; A -0.455; L -0.402; S -0.079; I -0.915; F -0.267; G -0.299; E -0.102; K -0.073; P -0.909; Q -0.415; V -0.833

Source: the Human Domainome abundance scans (Beltran et al. 2025)
